From patent US7115262

What was measured:
[1] = molecular target: HIV-1 Env (LAV) (HIV-1 (LAV)) (UniProt P03377); test: cell-based or functional assay
[2] = molecular target: wildtype (WT) SF162 Env (HIV-1 (SF162)) (UniProt P19550); test: cell-based or functional assay

MAb 17b (antibody)
% control, Standard Assay (CXCR4 and CD4 on target cells), 17b at 0.1 µg/ml [1]: 93.4 % control
% control, Standard Assay (CXCR4 and CD4 on target cells), 17b at 0.5 µg/ml [1]: 104 % control
% control, Standard Assay (CXCR4 and CD4 on target cells), 17b at 1 µg/ml [1]: 94.1 % control
% control, Standard Assay (CXCR4 and CD4 on target cells), 17b at 5 µg/ml [1]: 119 % control
% control, sCD4 Assay (CXCR4 alone on target cells, 200 nM soluble CD4 added), 17b at 0.1 µg/ml [1]: 114 % control
% control, sCD4 Assay (CXCR4 alone on target cells, 200 nM soluble CD4 added), 17b at 0.5 µg/ml [1]: 39.2 % control
% control, sCD4 Assay (CXCR4 alone on target cells, 200 nM soluble CD4 added), 17b at 1 µg/ml [1]: 14.1 % control
% control, sCD4 Assay (CXCR4 alone on target cells, 200 nM soluble CD4 added), 17b at 5 µg/ml [1]: 0 % control
β-gal, Standard Assay (CXCR4 and CD4 on target cells), 17b at 0.1 µg/ml [1]: 39.5
β-gal, Standard Assay (CXCR4 and CD4 on target cells), 17b at 0.5 µg/ml [1]: 43.9
β-gal, Standard Assay (CXCR4 and CD4 on target cells), 17b at 1 µg/ml [1]: 39.8
β-gal, Standard Assay (CXCR4 and CD4 on target cells), 17b at 5 µg/ml [1]: 50.5
β-gal, sCD4 Assay (CXCR4 alone on target cells, 200 nM soluble CD4 added), 17b at 0.1 µg/ml [1]: 13.6
β-gal, sCD4 Assay (CXCR4 alone on target cells, 200 nM soluble CD4 added), 17b at 0.5 µg/ml [1]: 4.66
β-gal, sCD4 Assay (CXCR4 alone on target cells, 200 nM soluble CD4 added), 17b at 1 µg/ml [1]: 1.68
β-gal, sCD4 Assay (CXCR4 alone on target cells, 200 nM soluble CD4 added), 17b at 5 µg/ml [1]: 0

soluble CD4 (from UniProt P01730 26-208) (receptor)
β-gal activity, vaccinia-based reporter gene cell fusion assay, +sCD4 (100 nM), CCR5 target cells without CD4; WT Env duplicate [2]: 6.6
β-gal activity, vaccinia-based reporter gene cell fusion assay, +sCD4 (100 nM), CCR5 target cells without CD4; WT Env mean [2]: 5.9
